The record followed here is patent US20150284465A1 (Chugai, published 2015).

Experiment [1] addresses T1, SR344 (N-terminal 1st to 344th amino acids of soluble human IL-6R) (human, UniProt P08887 20-344, limits assumed).
T1 sequence (looked up): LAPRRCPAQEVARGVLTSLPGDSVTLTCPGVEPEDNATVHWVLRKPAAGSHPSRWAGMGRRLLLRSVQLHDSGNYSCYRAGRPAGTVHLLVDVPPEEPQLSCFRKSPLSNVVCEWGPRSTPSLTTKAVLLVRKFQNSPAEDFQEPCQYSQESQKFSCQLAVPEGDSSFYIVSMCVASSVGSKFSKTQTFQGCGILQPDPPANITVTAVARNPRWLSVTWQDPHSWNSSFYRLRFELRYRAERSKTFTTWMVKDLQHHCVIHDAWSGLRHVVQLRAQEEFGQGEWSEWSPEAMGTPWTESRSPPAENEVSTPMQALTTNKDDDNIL
Briefly: cell-based or functional assay.

For experiment [2], the target named is T2, recombinant human IL-6R sR (R&D systems) (human, UniProt P08887 20-358).
T2 construct: Bought soluble receptor; also called rhIL-6sR; rhIL-s6R
T2 sequence (looked up): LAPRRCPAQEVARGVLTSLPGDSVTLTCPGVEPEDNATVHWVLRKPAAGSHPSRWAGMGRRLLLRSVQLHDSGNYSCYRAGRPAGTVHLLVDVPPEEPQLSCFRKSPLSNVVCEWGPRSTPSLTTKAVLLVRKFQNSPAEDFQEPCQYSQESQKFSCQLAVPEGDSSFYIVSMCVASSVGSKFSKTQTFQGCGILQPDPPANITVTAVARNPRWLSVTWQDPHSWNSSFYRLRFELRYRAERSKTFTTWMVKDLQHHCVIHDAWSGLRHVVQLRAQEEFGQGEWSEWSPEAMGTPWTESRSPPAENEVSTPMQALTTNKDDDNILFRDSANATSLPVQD
Briefly: SPR (Biacore T100), antibody captured on Protein A/G, antigen as analyte, 37 C. The procedure: (§1) A sensor chip was prepared by immobilizing about 3,000 RU of Protein A/G onto CM5 (Biacore) with the amine coupling method. […] The running buffer used was HBS-EP+, and the flow rate was 20 μl/min. Each antibody was prepared so that about 100 RU of the antibody was bound to Protein A/G. For the analyte, rhIL-6sR was prepared at 0, 0.156, 0.313, and 0.625 μg/ml using HBS-EP+, while SR344 was adjusted to 0, 0.0654, 0.131, and 0.261 μg/ml. […] After three minutes of interaction, the solution was switched with HBS-EP+ (Biacore), and the dissociation phase was monitored for ten minutes. After measurement of the dissociation phase, the sensor chip was regenerated by washing with 10 μl of 10 mM glycine-HCl (pH 1.5). The association, dissociation, and regeneration constituted one analytic cycle. All experiments were carried out at 37° C.
(§2) The obtained sensorgrams were kinetically analyzed using Biacore T100 Evaluation Software, which is a data analysis software specific for Biacore (Table 3). […] All measurements described hereinafter in the Examples were carried out at 37° C. to kinetically analyze the antigen-antibody reaction using SR344 and protein A/G.
A general note: SPR reads the build-up and loss of mass on a sensor chip optically.

The target in experiment [3] is T1, SR344 (N-terminal 1st to 344th amino …). Described as above. The procedure:
as §1, §2

The target is the same in experiment [4]. Briefly: SPR (Biacore T100), antibody captured on Protein A/G, SR344 as analyte, 37 C. The procedure:
This measurement was carried out under the same conditions described in Example 2. The running buffer used was HBS-EP+, and the flow rate was 20 μl/min. Each antibody was prepared so that about 100 RU of the antibody was bound to Protein A/G. SR344 was prepared at 0, 0.065, 0.131, and 0.261 μg/ml using HBS-EP+ and used as an analyte. In the first step of the measurement, the antibody in solution was bound to Protein A/G, and the analyte solution was allowed to interact therewith. After three minutes of interaction, the solution was switched to HBS-EP+, and the dissociation phase was monitored for 10 or 15 minutes. After measurement of the dissociation phase, the sensor chip was regenerated by washing with 10 μl of 10 mM glycine-HCl (pH 1.5). The association, dissociation, and regeneration constitute one analysis cycle. Each antibody was measured according to this cycle.
The sensorgram was kinetically analyzed using the Biacore-specific data analysis software, Biacore T100 Evaluation Software.

The target in experiment [5] is T2, recombinant human IL-6R sR (R&D systems). Briefly: SPR (Biacore T100), antibody captured on Protein A, rhIL-6sR as analyte, 25 C. The procedure: The antigen-antibody interaction was measured by immobilizing 4,400 to 5,000 RU of rec-Protein A (Zymed) immobilized onto a sensor chip by the amine coupling method, binding various antibodies onto the chip, and then flowing the antigen over the chip as an analyte. For the antigen, various concentrations of rhIL-6sR were used. All measurements were carried out at 25° C. The kinetic parameters, association rate constant kₐ (1/Ms) and dissociation rate constant kd (1/s) were calculated from the sensorgrams obtained by measurement. Then, KD (M) was determined based on the rate constants. The respective parameters were determined using Biacore T100 Evaluation Software (Biacore).

For experiment [6] the target is unchanged. Briefly: SPR (Biacore T100), antibody captured on Protein A/G, antigen as analyte, 37 C. The procedure:
(§3) The antigen-antibody interaction was measured by immobilizing purified Recomb Protein A/G (Pierce) (hereinafter “Protein A/G”) onto a sensor chip, binding various antibodies onto the chip, and then flowing the antigen as an analyte over the chip. Various concentrations of rhIL-6sR (R&D systems) and recombinant soluble IL-6 receptor (SR344 prepared in Example 1) were used as the antigen. The sugar chain structure of rhIL-6sR produced by baculovirus-infected insect cells is of high-mannose type. On the other hand, the sugar chain structure of SR344 produced by CHO cells is assumed to be of the complex sugar chain type with sialic acid at its end. Since the sugar chain structure of soluble IL-6 receptor in an actual human body is assumed to be of the complex sugar chain type with sialic acid at its end, SR344 is expected to have a structure closer to that of soluble IL-6 receptor in the human body. Thus, a comparison test between rhIL-6sR and SR344 was carried out in this experiment.
as §1
This is another data set of the same source.

Experiment [7] deals with T1, SR344 (N-terminal 1st to 344th amino …). Described as above. The procedure: as §3, §1
This is another data set of the same source.

The target is the same in experiment [8]. Briefly: SPR (Biacore T100), antibody captured on Protein A/G, SR344 as analyte, 37 C. The source holds these as a separate data set.
Experiment [9] has the same target. The experiment is described as above. The procedure: The antigen-antibody interaction was measured by immobilizing purified Recomb Protein A/G (Pierce) (hereinafter “Protein A/G”) onto a sensor chip, binding various antibodies onto the chip, and then flowing the antigen over the chip as an analyte. Various concentrations of recombinant soluble IL-6 receptor (SR344) were used as the antigen. The measurement conditions were the same as described in Example 2.
Kinetic analysis was carried out using Biacore-specific data analysis software Biacore T100 Evaluation Software.
This is another data set of the same source.

The target is the same in experiment [10]. Briefly: SPR (Biacore T100), Protein A/G capture, SR344 as analyte, 37 C.
For experiment [11] the target is unchanged. Briefly: SPR (Biacore T100), Protein A/G capture, SR344 at 0, 0.36 and 1.4 µg/ml, 15 min dissociation, 37 C.

B1: RDC-23 (antibody, V domains shown)
VH: QVQLQESGPGLVRPSQTLSLTCTVSGYSITSDHAWSWVRQPPGRGLEWIGYISYSGITTYNPSLKSRVTMLRDTSKNQFSLRLSSVTAADTAVYYCARVLARITAMDYWGQGSLVTVSS
VL: DIQMTQSPSSLSASVGDRVTITCRASQDISSYLNWYQQKPGKAPKLLIYYTSRLHSGVPSRFSGSGSGTDFTFTISSLQPEDIATYYCGQGNRLPYTFGQGTKVEIK
notes: also called RDC-5H/RDC-11L
As to B1, the “BaF3/gp130 neutralizing activity, 100% inhibitory concentration against WT” value in experiment [1] is approximately 100 fold. The “fold improved affinity against WT” value in experiment [2] and in experiment [3] was 40 to 60 fold in each case. The Kd (usually the concentration at which binding is half-saturated) was found to be 0.067 nM in experiment [4], 0.025 nM in experiment [5], 0.028 nM in experiment [6] and 0.067 nM in [7]. In addition, the koff (commonly a measure of how fast the partners let go of each other) in [4] came to 4.3e-05 s⁻¹; in experiment [5], 3.1e-05 s⁻¹; in experiment [6], 4.5e-05 s⁻¹; in [7] it was 4.3e-05 s⁻¹. Moreover, the on-rate (kon) (usually the second-order rate constant of association) in experiment [4] is 640000 M⁻¹ s⁻¹; in experiment [5], 1.2e+06 M⁻¹ s⁻¹; in experiment [6], 1.6e+06 M⁻¹ s⁻¹; in experiment [7], 640000 M⁻¹ s⁻¹.

B2: H53/L28 (antibody, IgG1, V domains shown)
VH: QVQLQESGPGLVKPSETLSLTCAVSGYSISDDHAWSWVRQPPGEGLEWIGYISYSGITNYNPSLKGRVTISRDTSKNQFSLKLSSVTAADTAAYYCARSLARTTAMDYWGEGTLVTVSS
VL: DIQMTQSPSSLSASVGDSVTITCQASQDISSYLNWYQQKPGKAPELLIYYGSELHSGVPSRFSGSGSGTDFTFTISSLEAEDAATYYCQQGNSLPYTFGQGTKVEIE
notes: Made from the vectors of the IgG1 antibody WT
For the molecule B2, the “fold improved affinity against WT” value in experiment [8] was approximately 6 fold. Besides, in [9], the Kd is 0.68 nM, the koff amounted to 0.00052 s⁻¹ and the kon was found to be 760000 M⁻¹ s⁻¹. For the same molecule, in [4], the affinity, expressed as Kd, was 0.68 nM; the koff stood at 0.00052 s⁻¹; the on-rate (kon) is 760000 M⁻¹ s⁻¹.

B3: F2H/L39-IgG1 (antibody, V domains shown)
VH: QVQLQESGPGLVKPSETLSLTCAVSGYSISDDHAWSWVRQPPGEGLEWIGYISYSGITNYNPSLQDRVTISRDNSKNTLYLQMNSLRAEDTAVYYCARLLARATAMDYWGQGILVTVSS
VL: DIQMTQSPSSLSASVGDSVTITCQASEDISSYLNWYQQKPGKAPELLIYYGSELESGVPSRFSGSGSGTDFTFTISSLEAEDAATYYCGQGNRLPYTFGQGTKVEIER
Turning to B3, the “BaF3/gp130 neutralizing activity, 100% inhibitory concentration against WT” value in experiment [1] was not below 100 fold. For the same molecule, the “ka relative to PF1-IgG1” value in experiment [10] was approximately 0.5 fold. In experiment [11], the Kd was determined as 0.052 nM, the koff amounted to 4e-05 s⁻¹ and the kon was 770000 M⁻¹ s⁻¹.
